Entries after “also recorded” stand apart in the source; their conditions may differ.

For one experiment, the system named is TrkB positive neurons. In words: Diphtheria toxin mediated ablation of TrkB+ sensory neurons in TrkBCreERT2::AviliDTR mice. It is filed as in vivo, mouse. As to conditions: systemic injection; DRG sections.
In a further experiment the test system is TrkB positive afferents. As to the kind of experiment: Innervation of skin and DRG neuron counts after photoablation. It is filed as in vivo, mouse. To be noted: 7 days after photoablation (13 days post-SNI). An excerpt: Prior to photoablation, TrkB positive lanceolate endings were detected around hair follicles (FIG. 9a) and innervating Meissner corpuscles in the plantar surface of the paw. […] It was further investigated whether loss of TrkB^CreERT2 neurons was also evident at the level of the cell soma by analyzing the number of TrkB^CreERT2 positive neurons in the DRG.

The test system of the next experiment is primary keratinocytes. As to the kind of experiment: In-vitro photo-ablation of primary keratinocytes (propidium iodide staining). It is filed as cell-based, mouse. To be noted: wild type keratinocytes; near infra-red light; 24 hours after. On the procedure:
1 μM IL31^SNAP and 3 μM BG-IR700 were coupled for 1 hour at 37° C. The coupling reaction was applied for 10 minutes at 37° C. on primary wild type and IL31RA^−/− keratinocytes. Cells were then exposed to near infra-red light (680 nm) at 40 J/cm^2 for 2 minutes. 24 hours after light exposure cell death was assessed by Propidium iodide (PI) staining (Invitrogen #P3566) and cells were imaged with an epifluorescent microscope.

Experiment [1] concerns Calcipotriol model of atopic dermatitis. In words: Calcipotriol model of atopic dermatitis. To be noted: prevention: injection and near IR illumination 3 days prior to Calcipotriol.
Experiment [2] concerns HEK293T cells expressing TrkB/p75. In words: BDNF^SNAP-IR700 photoablation of HEK293T cells (propidium iodide). It is filed as cell-based. As to conditions: HEK293T cells expressing TrkB/p75; 24 hours after brief illumination. An excerpt: In initial experiments BDNF^SNAP-IR700 was applied to HEK293T cells expressing TrkB/p75 and cell death assayed following near infrared illumination.

For experiment [3], the system named is phosphorylated Akt, pMAPK and pSTAT3. In words: Immunoblot of IL31 downstream signaling in injected skin. Format: in vivo, mouse. To be noted: skin harvested 1 hour after subcutaneous injection, 5 μM. The source says:
A conceptual problem of using IL31^SNAP therapeutically is that it in itself evokes itch. The inventors therefore sought to engineer IL31^SNAP to obtain a ligand that still binds to IL31 receptor complex but no longer promotes signaling. […] The K138A mutation denotes the murine IL31 mutations. The corresponding mutation in the human IL31 protein is at position K134 in the human IL31 (SEQ ID NO: 1). The inventors generated a recombinant IL31^K138A-SNAP fusion protein, labelled it with BG-Surface549 and applied it to keratinocytes. […] Importantly, such signal was not present in IL31RA^−/− keratinocytes (FIG. 2b). The inventors further assessed cellular signaling pathways activated by IL31^SNAP and […] in the skin by examining levels of phosphorylated Akt, pMAPK and pSTAT3 which have all been previously implicated in IL31 downstream signaling (14, 21, 22). […]
To assess the coupling reaction, 10 and 20 pmol IL31^SNAP was coupled with 30 and 60 pmol BG549 respectively for 1 hour at 37° C. […] The bands corresponding to the binding of IL31^SNAP with BG549 were visualized by gel fluorescence. […] Protein lysate was quantified by Bradford assay. […] Bands were visualized using the ECL detection system (Amersham #RPN2106); band density was calculated using ImageJ and the levels of phosphorylated proteins were normalized to the total counterpart.
In general terms: A western blot detects proteins with antibodies after separation by electrophoresis.

Experiment [4] has as its system wild type and IL31RA^−/− mice. As to the kind of experiment: Scratching behavior upon intradermal injection of the ligand. Format: in vivo, mouse. As to conditions: 5 μM.
In the next experiment the test system is IL31 Receptor A (IL31RA). As to the kind of experiment: Binding studies in primary keratinocyte cultures with BG-Surface549 labelled ligand. The arrangement: species or system mouse. An excerpt:
The inventors produced recombinant IL31 with a C-terminal fusion of SNAP (IL31^SNAP) in E. Coli. […] To determine whether IL31^SNAP was functional the inventors first performed binding studies in primary keratinocyte cultures. IL31^SNAP was labelled in vitro with BG-Surface549 and applied to keratinocytes from wildtype or IL31 Receptor A (IL31RA) knockout mice (IL31RA^−/−). […] The inventors further examined IL31^SNAP labelling in vivo by injecting IL31^SNAP-Surface549 intradermally into the back skin of wild type and IL31RA^−/− mice. […] Finally, the inventors determined whether IL31^SNAP was active by quantifying scratching behavior in mice upon intradermal injection. […] Thus the IL31^SNAP retains the functional properties of native IL31.
Primary keratinocytes were isolated from 1-3 day-old wild type and IL31RA^−/− mice as previously described (25). Briefly, newborn mouse skin was removed and incubated flat in cold and freshly thawed trypsin overnight, at 4° C., with the dermis side down. The next day, epidermis was peeled off, triturated and keratinocytes were cultured in serum free media (Invitrogen #10744-019) on Collagen I (Sigma #3867)-coated dishes (Ibidi #81151). All experiments were performed on 48-72 hours cultured cells.
Cells were incubated with the coupling reaction for […] at 37° C., then washed 3 times in CIB; and imaged using confocal microscope.

As to diphtheria toxin, in the experiment on TrkB positive neurons, the “ablation of TrkBCreERT2::AviliDTR and TrkB mRNA positive neurons” value is around 90%; the “expression of other markers” value is given as “no change”; the “reduction in the number of NF200 positive neurons” value is around 40%.
Turning to BG-PEG11-IRDye®700DX [IR700], in the experiment on TrkB positive afferents, the “innervation of hairy and glabrous skin” value is “no apparent reduction in innervation”. In the experiment with primary keratinocytes, the “cell death after illumination” value was “not evident”. In experiment [1], the “development of atopic dermatitis-like indicators” value was “ineffective at blocking the progression of the condition”. In experiment [2], the “cell death after near infrared illumination” value is listed as “not evident”.

B1: IL31^SNAP: recombinant IL31 with a C-terminal fusion of SNAP, produced in E. Coli (protein)
chain: TCSLSFGAPISKEDLRTTIDLLKQESQDLYNNYSIKQASGMSADESIQLPCFSLDREALTNISVIIAHLEKVKVLSENTVDTSWVIRWLTNISCFNPLNLNISVPGNTDESYDCKVFVLTVLKQFSNCMAELQAKDNTTC
modifications: left off: small tags and cut ends
notes: recombinant IL31 with a C-terminal fusion of SNAP, produced in E. Coli
In the case of B1, the “phosphorylation of Akt, MAPK and STAT3 in skin” value in experiment [3] was “increased phosphorylation in each pathway”. Moreover, the “scratching behavior evoked by the ligand” value is recorded as “did not evoke scratching” in experiment [4] (IL31RA^−/− mice) and “evoked robust scratching; also recorded: induced robust scratching” in experiment [4] (wildtype mice). The entries for the “fluorescent signal in keratinocytes” value with IL31 Receptor A (IL31RA) (IL31RA^−/− keratinocytes) and in the experiment with IL31 Receptor A (IL31RA) (wildtype keratinocytes) were “not present” and “strong fluorescent signal internalized”, respectively.

B2: IL31^K138A-SNAP: recombinant fusion protein of murine IL31 point mutant K138A with SNAP (protein)
chain: TCSLSFGAPISKEDLRTTIDLLKQESQDLYNNYSIKQASGMSADESIQLPCFSLDREALTNISVIIAHLEKVKVLSENTVDTSWVIRWLTNISCFNPLNLNISVPGNTDESYDCAVFVLTVLKQFSNCMAELQAKDNTTC
modifications: left off: small tags and cut ends
In the case of B2, the “phosphorylation of Akt, MAPK and STAT3 in skin” value in experiment [3] is listed as “increase was absent”. Moreover, in experiment [4] (wildtype mice), the “scratching behavior evoked by the ligand” value is on record as “did not evoke any scratching above baseline levels”. Further, the “fluorescent signal in keratinocytes” value is recorded as “not present” in the experiment with IL31 Receptor A (IL31RA) (IL31RA^−/− keratinocytes) and “Pronounced fluorescence” in the experiment with IL31 Receptor A (IL31RA) (wildtype keratinocytes).

B3: IL31: native recombinant IL31 (Peprotech) (protein)
chain: TCSLSFGAPISKEDLRTTIDLLKQESQDLYNNYSIKQASGMSADESIQLPCFSLDREALTNISVIIAHLEKVKVLSENTVDTSWVIRWLTNISCFNPLNLNISVPGNTDESYDCKVFVLTVLKQFSNCMAELQAKDNTTC
On to B3, for which the “scratching behavior evoked by the ligand” value in experiment [4] (IL31RA^−/− mice) is reported as “did not evoke scratching”.

The values are drawn from patent publication US20190184015A1, “IRRADIATION TREATMENT OF NEUROLOGICAL SENSATIONS BY PHOTOABLATION” (European Molecular Biology Laboratory, priority 2016, published 2019).
